The source of these data is article PMC10691696, “ZmEREB92 plays a negative role in seed germination by regulating ethylene signaling and starch mobilization in maize”.

The series addresses ZmEREB92 (Zea mays, UniProt B6SIZ8 1-233). The series can be described thus: EMSA; 200x unlabeled probe used as competitor; EMSA: 0.2 pmol biotin probe with ZmEREB92-His, 30 min at 28 °C, 6.5% native PAGE, chemiluminescence kit (Beyotime); buffer, salt and pH not given. The following applies: protein: recombinant; tags: His-tag (C-terminal as stated; pET32a vector); label: biotin; blunt. For orientation: Mobility shift assays separate free from complexed probe on a gel.

Chain of ZmEREB92 (B6SIZ8 entry or part of it): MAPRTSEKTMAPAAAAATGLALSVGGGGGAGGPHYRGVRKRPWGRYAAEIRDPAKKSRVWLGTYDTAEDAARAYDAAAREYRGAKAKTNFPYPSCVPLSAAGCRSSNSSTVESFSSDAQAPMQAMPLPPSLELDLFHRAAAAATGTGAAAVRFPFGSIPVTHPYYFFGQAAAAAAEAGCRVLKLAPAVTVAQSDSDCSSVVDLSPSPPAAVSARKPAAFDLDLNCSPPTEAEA

B1: pAMYa2-C (dsDNA)
DNA 1: TCGTCGTCTCGCCGCCGCCGCCGCCGCCGCAACGGGTCT
DNA 2: AGACCCGTTGCGGCGGCGGCGGCGGCGGCGAGACGACGA
In the case of B1, the binding result was “binds”.

B2: pAMYa2-A (dsDNA)
DNA 1: TCAAGAATTTAAGGCGGCGAAAGCCGAC
DNA 2: GTCGGCTTTCGCCGCCTTAAATTCTTGA
For the molecule B2, the binding result is listed as “binds”.
